# T1: FcγRIIa H (FcγRIIa type H, His at position 131), extracellular domain with C-terminal His tag (human, UniProt P12318 34-217)
# T1 construct: extracellular domain; also called 2aH; FcgRIIa H; not shown: His tag at the C terminus
# T1 sequence (looked up): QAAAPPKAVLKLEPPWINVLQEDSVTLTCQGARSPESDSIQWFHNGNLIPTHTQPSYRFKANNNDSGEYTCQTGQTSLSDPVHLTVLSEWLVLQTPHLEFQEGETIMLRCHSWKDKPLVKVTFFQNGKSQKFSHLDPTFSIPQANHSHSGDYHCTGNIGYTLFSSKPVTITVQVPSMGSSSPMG
# T2: FcγRIIb, extracellular domain with C-terminal His tag (human, UniProt P31994 43-217)
# T2 construct: extracellular domain; also called 2b; FcgRIIb; not shown: His tag at the C terminus
# T2 sequence (looked up): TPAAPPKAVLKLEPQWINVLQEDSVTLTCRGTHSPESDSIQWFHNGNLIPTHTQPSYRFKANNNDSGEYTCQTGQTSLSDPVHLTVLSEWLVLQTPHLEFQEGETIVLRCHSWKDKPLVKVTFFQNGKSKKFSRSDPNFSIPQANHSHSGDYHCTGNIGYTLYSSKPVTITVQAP
# T3: FcγRIIb extracellular domain with C-terminal His tag (human, UniProt P31994 43-217)
# T3 construct: extracellular domain; also called FcgRIIb; 2b; not shown: His tag at the C terminus
# T3 sequence (looked up): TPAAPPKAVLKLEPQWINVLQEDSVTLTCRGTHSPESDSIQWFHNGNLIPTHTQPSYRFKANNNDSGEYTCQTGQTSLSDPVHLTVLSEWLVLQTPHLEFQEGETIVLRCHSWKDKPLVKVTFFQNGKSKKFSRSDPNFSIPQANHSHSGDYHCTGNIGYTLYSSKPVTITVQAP
# Columns and labels:
# [1] = target: T1, FcγRIIa H (FcγRIIa type H, His at …); test: ratio of He/Con_2aH (FcγRIIa H) to He/Con_2b (FcγRIIb), SPR relative binding
# Method: (§1) The heterodimerized antibodies He Abs in which one of the H chains was introduced with an alteration were assayed for their binding activities to each activating FcγR and inhibitory FcγR according to the method described in Example 4. […] The activating FcγRs in FIGS. 26, 27, 28, and 29 are FcγRIa, FcγRIIa (R), FcγRIIa (H), and FcγRIIIa, respectively.
# (§2) Analysis of interaction between objective antibody and the FcγR was carried out using Biacore T100 (GE Healthcare). HBS-EP+ (GE Healthcare) was used as the running buffer, and the measurement temperature was set to 25° C. Chips produced by immobilizing the antigen peptide by the amine coupling method to a Series S Sencor Chip CM5 (GE Healthcare), or alternatively, chips produced by allowing preliminarily biotinylated antigen peptides to interact with and immobilize onto a Series S Sensor Chip SA (certified) (GE Healthcare) were used. Antibodies of interest were captured onto an antigen peptide-immobilized chip, and allowed to interact to each FcγR diluted with running buffer. To regenerate and repeatedly use the chip, the antibodies captured on the chip were washed off by reacting 10 mM glycine-HCl, pH 1.5.
# [2] = target: T1, FcγRIIa H (FcγRIIa type H, His at …); test: SPR (Biacore), antibody captured on antigen-peptide chip, FcγR as analyte; GpH7-A5/GpH7-B3/GpL16-k0 = 100
# Method: as §1, §2
# [3] = target: T2, FcγRIIb, extracellular domain with …; test: as above
# Method: as §1, §2
# [4] = target: T4, FcγRIIIa extracellular domain with C-terminal His tag (human, UniProt P08637 17-208); test: SPR; He/Con_3a divided by He/Con_2b (binding to FcγRIIb is the reference)
# T4 construct: extracellular domain; also called FcgRIIIa; 3a; not shown: His tag at the C terminus
# Method: as §2
# (§3) The FcγR-binding activity of each antibody was assessed primarily using as an indicator the FcγR-binding activity and dissociation constant for FcγR.
# [5] = target: T4, FcγRIIIa extracellular domain with …; test: SPR (Biacore), antibody captured on antigen peptide chip, FcγR as analyte; relative binding amount
# Method: as §2, §3
# [6] = target: T3, FcγRIIb extracellular domain with …; test: as above
# Method: as §2, §3
# T4 sequence (P08637 17-208): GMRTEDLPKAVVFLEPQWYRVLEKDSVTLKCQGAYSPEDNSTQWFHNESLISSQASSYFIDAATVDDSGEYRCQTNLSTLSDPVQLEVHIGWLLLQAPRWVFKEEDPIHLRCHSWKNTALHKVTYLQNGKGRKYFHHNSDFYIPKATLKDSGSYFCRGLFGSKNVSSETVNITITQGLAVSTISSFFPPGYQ
Binder,He_2aH/2b (IIaH/IIb ratio) [1],He/Con_2aH (relative binding activity) [2],He/Con_2b (relative binding activity) [3],He_3a/2b (IIIa/IIb) [4] [ratio],He/Con_3a [5],He/Con_2b [6]
"GpH7-A5/GpH7-B3 variant V266_06M/GpL16-k0 (antibody, human IgG1, kappa, Heterodimerized IgG1 (He Ab); mutation only in the GpH7-B3 chain; also called He Ab V266M) heavy 1: not shown heavy 2: not shown light: DIVMTQSPLSLPVTPGEPASISCQASESLVHSNRNTYLHWYLQKPGQSPQLLIYKVSNRFSGVPDRFSGSGSGTDFTLKISRVEAEDVGVYYCSQNTHVPPTFGQGTKVEIERTVAAPSVFIFPPSDEQLKSGTASVVCLLNNFYPREAKVQWKVDNALQSGNSQESVTEQDSKDSTYSLSSTLTLSKADYEKHKVYACEVTHQGLSSPVTKSFNRGEC",0.33,83.9 % of control,251 % of control,,,
"GpH7-A5/GpH7-B3 variant S239_01G/GpL16-k0 (antibody, human IgG1, kappa, Heterodimerized anti-glypican-3 IgG1; the substitution stands in the GpH7-B3 chain only; also called He Ab) heavy 1: not shown heavy 2: not shown light: DIVMTQSPLSLPVTPGEPASISCQASESLVHSNRNTYLHWYLQKPGQSPQLLIYKVSNRFSGVPDRFSGSGSGTDFTLKISRVEAEDVGVYYCSQNTHVPPTFGQGTKVEIERTVAAPSVFIFPPSDEQLKSGTASVVCLLNNFYPREAKVQWKVDNALQSGNSQESVTEQDSKDSTYSLSSTLTLSKADYEKHKVYACEVTHQGLSSPVTKSFNRGEC",,,,0.53,76.2 % of GpH7-A5/GpH7-B3/GpL16-k0 (=100),144 % of GpH7-A5/GpH7-B3/GpL16-k0 (=100)
"GpH7-A5/GpH7-B3 variant D265_01G/GpL16-k0 (antibody, human IgG1, kappa, Heterodimerized anti-glypican-3 IgG1; the substitution stands in the GpH7-B3 chain only; also called He Ab) heavy 1: not shown heavy 2: not shown light: DIVMTQSPLSLPVTPGEPASISCQASESLVHSNRNTYLHWYLQKPGQSPQLLIYKVSNRFSGVPDRFSGSGSGTDFTLKISRVEAEDVGVYYCSQNTHVPPTFGQGTKVEIERTVAAPSVFIFPPSDEQLKSGTASVVCLLNNFYPREAKVQWKVDNALQSGNSQESVTEQDSKDSTYSLSSTLTLSKADYEKHKVYACEVTHQGLSSPVTKSFNRGEC",,,,0.28,4.5 % of GpH7-A5/GpH7-B3/GpL16-k0 (=100),16.1 % of GpH7-A5/GpH7-B3/GpL16-k0 (=100)

# Continued, values first:
He_2aH/2b (IIaH/IIb ratio) [1],He/Con_2aH (relative binding activity) [2],He/Con_2b (relative binding activity) [3],He_3a/2b (IIIa/IIb) [4] [ratio],He/Con_3a [5],He/Con_2b [6],Binder
0.44,104 % of control,236 % of control,,,,"GpH7-A5/GpH7-B3 variant V266_08L/GpL16-k0 (antibody, human IgG1, kappa, Heterodimerized IgG1 (He Ab); mutation only in the GpH7-B3 chain; also called He Ab V266L) heavy 1: not shown heavy 2: not shown light: DIVMTQSPLSLPVTPGEPASISCQASESLVHSNRNTYLHWYLQKPGQSPQLLIYKVSNRFSGVPDRFSGSGSGTDFTLKISRVEAEDVGVYYCSQNTHVPPTFGQGTKVEIERTVAAPSVFIFPPSDEQLKSGTASVVCLLNNFYPREAKVQWKVDNALQSGNSQESVTEQDSKDSTYSLSSTLTLSKADYEKHKVYACEVTHQGLSSPVTKSFNRGEC"
0.5,27 % of control,54.4 % of control,,,,"GpH7-A5/GpH7-B3 variant V266_13S/GpL16-k0 (antibody, human IgG1, kappa, Heterodimerized IgG1 (He Ab); mutation only in the GpH7-B3 chain; also called He Ab V266S) heavy 1: not shown heavy 2: not shown light: DIVMTQSPLSLPVTPGEPASISCQASESLVHSNRNTYLHWYLQKPGQSPQLLIYKVSNRFSGVPDRFSGSGSGTDFTLKISRVEAEDVGVYYCSQNTHVPPTFGQGTKVEIERTVAAPSVFIFPPSDEQLKSGTASVVCLLNNFYPREAKVQWKVDNALQSGNSQESVTEQDSKDSTYSLSSTLTLSKADYEKHKVYACEVTHQGLSSPVTKSFNRGEC"
0.69,106 % of control,152 % of control,,,,"GpH7-A5/GpH7-B3 variant V266_07I/GpL16-k0 (antibody, human IgG1, kappa, Heterodimerized IgG1 (He Ab); mutation only in the GpH7-B3 chain; also called He Ab V266I) heavy 1: not shown heavy 2: not shown light: DIVMTQSPLSLPVTPGEPASISCQASESLVHSNRNTYLHWYLQKPGQSPQLLIYKVSNRFSGVPDRFSGSGSGTDFTLKISRVEAEDVGVYYCSQNTHVPPTFGQGTKVEIERTVAAPSVFIFPPSDEQLKSGTASVVCLLNNFYPREAKVQWKVDNALQSGNSQESVTEQDSKDSTYSLSSTLTLSKADYEKHKVYACEVTHQGLSSPVTKSFNRGEC"
0.63,6.4 % of control,10.1 % of control,,,,"GpH7-A5/GpH7-B3 variant V266_09D/GpL16-k0 (antibody, human IgG1, kappa, Heterodimerized IgG1 (He Ab); mutation only in the GpH7-B3 chain; also called He Ab V266D) heavy 1: not shown heavy 2: not shown light: DIVMTQSPLSLPVTPGEPASISCQASESLVHSNRNTYLHWYLQKPGQSPQLLIYKVSNRFSGVPDRFSGSGSGTDFTLKISRVEAEDVGVYYCSQNTHVPPTFGQGTKVEIERTVAAPSVFIFPPSDEQLKSGTASVVCLLNNFYPREAKVQWKVDNALQSGNSQESVTEQDSKDSTYSLSSTLTLSKADYEKHKVYACEVTHQGLSSPVTKSFNRGEC"

# Reference: patent publication US20180155451A1 (published 2018)
